Holding throughout (experiment): UV ligand exchange ELISA; exchange yield grade
(An ELISA detects its analyte on a solid surface through an enzyme-linked reagent.)

The target in one assay is T1, HLA-A*01:01 (human).
T1 construct: Peptide-receptive MHC class I monomer made by UV cleavage of a UV-sensitive ligand
The procedure, abridged:
(§1)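 UV-exchange products diluted 100-fold, captured on streptavidin-coated wells, 1 h 37 °C; HRP anti-β2m 2 ug/ml, 1 h 37 °C; TMB, A450. Standards: refolded HLA-A*02:01/MLA-001, 15-500 ng/ml. Yield = β2m signal of stabilised MHC.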

A further assay has as its target T2, HLA-A*03:01 (human).
T2 construct: Peptide-receptive MHC class I monomer made by UV cleavage of a UV-sensitive ligand
The procedure, abridged: as §1

A further assay deals with T3, HLA-A*02:01 (human).
T3 construct: Peptide-receptive MHC class I monomer made by UV cleavage of a UV-sensitive ligand
In a few lines:
as §1

In turn, WIGDKSFEY returned a peptide exchange yield with HLA-A*01:01 of 20 to 50%.

FMDSESFYY: the peptide exchange yield with HLA-A*01:01 lay within 10 to 20%.

In the assay with HLA-A*01:01, ITDIHIKY had a peptide exchange yield of over 75%.

For TFDLTVVSY, in the assay with HLA-A*01:01, the peptide exchange yield was in the range of 20 to 50%.

In turn, LLNRHILAH yielded a peptide exchange yield with HLA-A*03:01 of 50 to 75%.

On to YSDKEFAGSY, for which the peptide exchange yield with HLA-A*01:01 is over 75%.

For ALDQNKMHY, the peptide exchange yield with HLA-A*01:01 was 50 to 75%.

In turn, ISEAGKDLLY came in with a peptide exchange yield with HLA-A*01:01 of 50 to 75%.

For KAYNRVIFV, in the assay with HLA-A*02:01, the peptide exchange yield fell in the range of 50 to 75%.

As to YSDIGHLL, the peptide exchange yield with HLA-A*01:01 was 20 to 50%.

In the assay with HLA-A*01:01, ATDIVDSQY registered a peptide exchange yield of 50 to 75%.

In the assay with HLA-A*01:01, YTDKKSIIY came in with a peptide exchange yield of 50 to 75%.

The molecule YINPAKLTPY had a peptide exchange yield in the assay with HLA-A*01:01 of 20 to 50%.

With RSDPGGGGLAY, the peptide exchange yield with HLA-A*01:01 lay within 50 to 75%.

In the assay with HLA-A*01:01, LTDSEKGNSY displayed a peptide exchange yield of 50 to 75%.

In turn, YVDAGTPMY yielded a peptide exchange yield with HLA-A*01:01 of 50 to 75%.

In the case of SISNLVFTY, the peptide exchange yield with HLA-A*03:01 fell in the range of 20 to 50%.

For the molecule VTEGVAQTSFY, in the assay with HLA-A*01:01, the peptide exchange yield is over 75%.

As to AAADHHSLY, in the assay with HLA-A*01:01, the peptide exchange yield was in the range of 50 to 75%.

In the assay with HLA-A*01:01, VTEEPQRLFY gave a peptide exchange yield of over 75%.

In the assay with HLA-A*01:01, LTEGHSGNYY yielded a peptide exchange yield of 50 to 75%.

STDSAGSSY registered a peptide exchange yield with HLA-A*01:01 of over 75%.

For the molecule GTDVLSTRY, the peptide exchange yield with HLA-A*01:01 fell in the range of 50 to 75%.

With SVADIRNAY, the peptide exchange yield with HLA-A*01:01 is 20 to 50%.

In the assay with HLA-A*01:01, FTDIDGQVY had a peptide exchange yield of 50 to 75%.

Turning to YSHPQYSSY, the peptide exchange yield with HLA-A*01:01 lay in the range of 20 to 50%.

On to HVDQDLTTY, for which the peptide exchange yield in the assay with HLA-A*01:01 lay in the range of 20 to 50%.

The values are drawn from patent publication US20180291083A1 (IMMATICS BIOTECHNOLOGIES, published 2018).
